Molecular target: the molecule itself
Test: dynamic light scattering + fluorescence microscopy

B1: Dhh1^48-425 (domain or fragment, yeast, UniProt P39517 48-425, looked up)
chain: FEDFYLKRELLMGIFEAGFEKPSPIQEEAIPVAITGRDILARAKNGTGKTAAFVIPTLEKVKPKLNKIQALIMVPTRELALQTSQVVRTLGKHCGISCMVTTGGTNLRDDILRLNETVHILVGTPGRVLDLASRKVADLSDCSLFIMDEADKMLSRDFKTIIEQILSFLPPTHQSLLFSATFPLTVKEFMVKHLHKPYEINLMEELTLKGITQYYAFVEERQKLHCLNTLFSKLQINQAIIFCNSTNRVELLAKKITDLGYSCYYSHARMKQQERNKVFHEFRQGKVRTLVCSDLLTRGIDIQAVNVVINFDFPKTAETYLHRIGRSGRFGHLGLAINLINWNDRFNLYKIEQELGTEIAAIPATIDKSLYVAENDET
binding result: binds

Reference: article doi:10.1101/2021.02.26.433003 (bioRxiv, 2021)
